Laboratory results as given in patent publication US20100093076A1, “SOLUBLE IL-27 RECEPTOR” (priority 2006, published 2010).

What was measured:
P815 cells = test: CTL-specific lysis assay with splenocytes of GVHD mice; type: cell-based, mouse; details: splenocytes of treated GVHD mice against calcein-labeled P815 cells; versus PBS group
Method: Efficacy of IL-27 antagonists was assayed in a mouse model of acute graft-vs-host disease (Durie et al., J. Clin. Invest. 94:1333-1338, 1994). Parental mice (C57BL/6; n=12) were euthanized, and their spleens were collected. The pooled spleens were smashed using two glass slides to dissociate splenic cells. Lysis buffer was added to the splenocyte suspension to remove red blood cells. The cells were washed in RPMI 1640 (10% FBS) medium and resuspended in an appropriate amount of PBS to make a cell concentration of 300 million cells/ml. Protein treatments were administered by intraperitoneal injection every other day beginning on day-1 and continuing until day 15. Dexamethasone (DEX) was administered by injection daily on days 0 through 6. […] Mice were monitored 3 times a week for changes in body weight and any signs of moribundity. […] Spleens were collected, and a CTL-specific lysis assay using P815 cells was performed as a quantitative measurement of acute GVHD. […]
For CTL assay, P815 cells (a tumor cell line from mice with the same MHC class as DBA2) were labeled with calcein, then splenocytes from each experimental animal were added to the calcein-labeled P815 cells at effector (splenocytes):target (P815) ratios of 100:1, 33:1, and 10:1. Four hours after incubation at 37° C., supernatants were collected and fluorescence was measured (485 nm/535 nm).

[1] = system: acute graft-vs-host disease; test: Mouse model of acute graft-vs-host disease; type: in vivo; details: acute GVHD
Method: Efficacy of IL-27 antagonists was assayed in a mouse model of acute graft-vs-host disease (Durie et al., J. Clin. Invest. 94:1333-1338, 1994). Parental mice (C57BL/6; n=12) were euthanized, and their spleens were collected. The pooled spleens were smashed using two glass slides to dissociate splenic cells. Lysis buffer was added to the splenocyte suspension to remove red blood cells. The cells were washed in RPMI 1640 (10% FBS) medium and resuspended in an appropriate amount of PBS to make a cell concentration of 300 million cells/ml. Protein treatments were administered by intraperitoneal injection every other day beginning on day-1 and continuing until day 15. Dexamethasone (DEX) was administered by injection daily on days 0 through 6. On day 0, 75 million donor splenic lymphocytes from B6 mice (250.micro.1 per injection) were injected intravenously into recipient mice (C57BL/6×DBA/2 F1 (BDF1); n=10 per group) mice. Mice were monitored 3 times a week for changes in body weight and any signs of moribundity. Mice that lost >20% of their initial body weight were euthanized. Otherwise, mice were sacrificed 18 days after the cell transfer. Spleens were collected, and a CTL-specific lysis assay using P815 cells was performed as a quantitative measurement of acute GVHD. Furthermore, spleens were stained for T- and B-cell markers, including MHC class I markers (H2^b and H2^d) to look at donor/recipient cell ratio (acute GVHD spleen cells are mostly donor cells). Sera were collected to measure serum level of IgG1, IgG2a, and IgE by ELISA, and cytokine and chemokine levels using a commercially available kit (Luminex Corporation, Austin, Tex.).

[2] = Pharmacokinetics of soluble receptors in female C57B1/6 mice (serum ELISA, noncompartmental analysis); type: in vivo, mouse; details: 100 μg; for AUCINF: extrapolated to infinity
Method: Studies were performed to evaluate the pharmacokinetics of the mouse (IL-27RAm(mFc1)) and human (IL-27RA-Fc5) soluble receptors in female C57B1/6 mice.
Serum was generated from each sample and analyzed by a qualified enzyme-linked immunosorbant assay (ELISA). The resulting mean serum concentration versus time profiles were then subjected to noncompartmental pharmacokinetic analyses. The following pharmacokinetic parameters were calculated: C0 and Cmax (extrapolated concentration at time zero and maximum serum concentration, respectively), Tmax (time to achieve maximum concentration), t1/2 λz (terminal half-life), AUC0-t (area under the concentration versus time curve from time zero to the last measurable time point), AUCINF (area under the concentration versus time curve extrapolated to infinity), C1 or C1/F (clearance or clearance divided by bioavailable fraction, respectively), VSS or VZ/F (steady state volume of distribution or volume of distribution divided by the bioavailable fraction, respectively), and F (bioavailable fraction).

human IL-27RA-Fc5: Extracellular domain of human IL27RA (amino acids 1 to 512 of SEQ ID NO:3) fused to Fc5, effector minus human gamma1 Fc; SEQ ID NO:16
CTL activity (P815 cells): reduced CTL activity compared to the PBS group | colon length shortening [1]: did prevent colon length shortening | splenomegaly [1]: did not prevent splenomegaly | host spleen cells, CD4+T cells, and Treg cells ([1]; BDF1 recipients, day 18): maintained host spleen cells, CD4+T cells, and Treg cells | Body weight loss ([1]; versus PBS control group): not severe and was significantly less than in the PBS control group | IL-2 level ([1]; serum, arrows, key not given): ↑↑↑ | IL-5 level ([1]; serum, arrows, key not given): ↑↑ | IL-6 level ([1]; serum, arrows, key not given): ↓↓↓ | IgE level ([1]; serum, arrows, key not given): ↑ | IgG1 level ([1]; serum, arrows, key not given): ↑↑ | IgG2A level ([1]; serum, arrows, key not given): ↑↑ | AUC0-120 ([2]; IP): 1310 µg·h/mL | Cl/F ([2]; IP): 0.0725 mL/h | Tmax ([2]; IP): 3 h | t1/2 λz (terminal half-life) ([2]; IP): 28.3 h | Cmax ([2]; IP, mouse serum): 35200 ng/mL | AUCINF ([2]; IP): 1380 µg·h/mL | AUC0-120 ([2]; IV): 1400 µg·h/mL | Cl ([2]; IV): 0.0664 mL/h | Vss ([2]; IV): 2.54 mL | t1/2 λz (terminal half-life) ([2]; IV): 34.9 h | Co (extrapolated concentration at time zero) ([2]; IV, mouse serum): 122 µg/mL | AUCINF ([2]; IV): 1510 µg·h/mL | AUC0-120 ([2]; SC): 1130 µg·h/mL | Cl/F ([2]; SC): 0.0828 mL/h | Tmax ([2]; SC): 6 h | t1/2 λz (terminal half-life) ([2]; SC): 29.3 h | Cmax ([2]; SC, mouse serum): 21000 ng/mL | AUCINF ([2]; SC): 1210 µg·h/mL
